Experimental data as given in the supplement of paper PMC10065799, “High-throughput profiling of sequence recognition by tyrosine kinases and SH2 domains using bacterial peptide display” (eLife, 2023).

What follows are sequences tested against SHP2-C SH2 (assay: SH2 binding enrichment of the phosphorylated peptide, bacterial display (enrichment ratio); higher = better substrate or ligand; peptides without Tyr show the background).
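For SH2 binding enrichment of the phosphorylated peptide, bacterial display in this document: peptide library displayed on the E. coli surface as eCPX fusions, selected cells deep-sequenced, score is each peptide's frequency after selection divided by its frequency in the input.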
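For phosphorylation enrichment, bacterial display in this document: 11-residue human phosphosite peptides and single-mutation variants displayed on the E. coli surface, counted by deep sequencing, each peptide's frequency after selection divided by its frequency in the unselected input library; frequency after pTyr selection over input frequency; kinase dosed for 20-30% of maximal phosphorylation in three min.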

| Sequence | SH2 binding enrichment |
| --- | --- |
| LIYTNYEAGKD [GSTP1_Y112] | 0.568 |
| IGEGTYGVVFK [CDK2_Y15_YF] | 0.655 |
| IGSQRYKLGVR [RB1_Y446] | 1.4 |
| RRIHSYRSHLW [VHL_Y112_G114S] | 0.822 |
| EEQKRYYNAMK [SCN5A_Y1494_K1493R] | 0.522 |
| HELFVYKCDEN [DOCK3_Y548_YF] | 0.698 |
| NTFEKYWLFFQ [GATM_Y103_P105L_YF] | 0.886 |
| KTGDYYDLYGG [PTPN11_Y63_N58K] | 0.665 |
| IVAREYYSEAD [CAMK2A_Y106] | 0.645 |
| FRPPYYHRDCM [HGD_Y334_N337D] | 0.913 |
| TETGRYEILTE | 0.426 |
| RVEDAYILTCN [CCT6A_Y229] | 0.54 |
| DLRTGYSVPYG [TGM1_Y370_Y365D] | 0.717 |
| LNPLIYSLRNK [OR5R1_Y290] | 1.66 |
| SSNTEYLSASD [INSR_Y999_P997T] | 0.573 |
| EYFDGYWEYSV [ITGA2B_Y265_G267E] | 0.758 |
| PDSVDYRKKGF [CTSK_Y121_YF] | 0.638 |

| Sequence | SH2 binding enrichment |
| --- | --- |
| EPAVLYNLKER [MYH7_Y103_D107E] | 0.653 |
| LASLIYNFILF [AQP6_Y231_V234I] | 1.04 |
| GQSKGYRPKLF [SIPA1L3_Y1376_YF] | 0.548 |
| CEHRGFLYLAI [TEK_Y897_Y897F] | 1.14 |
| SLTRLCVGENA [NLRP3_Y861_Y861C] | 0.589 |
| QPGTDYKIYRY [FN1_Y1970_L1974R] | 0.791 |
| VMSMNYRVGAL [BCHE_Y174_V170M] | 0.775 |
| SHMVDYQPYRK [TEX37_Y25] | 0.365 |
| AQAERYDDMAA [YWHAG_Y20_E15A] | 0.699 |
| SHLEDYPFNAE [AKR1B10_Y310] | 0.573 |
| NIKKEYAKMVQ [PMS2_Y181] | 0.791 |
| QDLFLYQTHSE [PKHD1_Y255] | 0.696 |
| CTIIHYNYMCN [TP53_Y234_T231I] | 1.76 |
| KNILCYIQGGS [HYDIN_Y4610] | 0.598 |
| ALVDTYCRHNY [HLA-DRB1_Y107_A103L] | 0.79 |
| SPPILYSFYLD [FCRL6_Y239] | 1.14 |

The sequences below were run against c-Src SH2 in the same assay as above.

| Sequence | SH2 binding enrichment |
| --- | --- |
| LIYTNYEAGKD [GSTP1_Y112] | 0.503 |
| IGEGTYGVVFK [CDK2_Y15_YF] | 0.457 |
| IGSQRYKLGVR [RB1_Y446] | 0.798 |
| RRIHSYRSHLW [VHL_Y112_G114S] | 0.57 |
| EEQKRYYNAMK [SCN5A_Y1494_K1493R] | 0.813 |
| HELFVYKCDEN [DOCK3_Y548_YF] | 0.561 |
| NTFEKYWLFFQ [GATM_Y103_P105L_YF] | 0.758 |
| KTGDYYDLYGG [PTPN11_Y63_N58K] | 0.916 |
| IVAREYYSEAD [CAMK2A_Y106] | 3.2 |
| FRPPYYHRDCM [HGD_Y334_N337D] | 1.09 |
| TETGRYEILTE | 17.2 |
| RVEDAYILTCN [CCT6A_Y229] | 0.671 |
| DLRTGYSVPYG [TGM1_Y370_Y365D] | 9.61 |
| LNPLIYSLRNK [OR5R1_Y290] | 0.727 |
| SSNTEYLSASD [INSR_Y999_P997T] | 0.547 |
| EYFDGYWEYSV [ITGA2B_Y265_G267E] | 0.465 |
| PDSVDYRKKGF [CTSK_Y121_YF] | 0.625 |

| Sequence | SH2 binding enrichment |
| --- | --- |
| EPAVLYNLKER [MYH7_Y103_D107E] | 0.486 |
| LASLIYNFILF [AQP6_Y231_V234I] | 1.02 |
| GQSKGYRPKLF [SIPA1L3_Y1376_YF] | 0.299 |
| CEHRGFLYLAI [TEK_Y897_Y897F] | 0.883 |
| SLTRLCVGENA [NLRP3_Y861_Y861C] | 0.538 |
| QPGTDYKIYRY [FN1_Y1970_L1974R] | 0.516 |
| VMSMNYRVGAL [BCHE_Y174_V170M] | 0.461 |
| SHMVDYQPYRK [TEX37_Y25] | 0.445 |
| AQAERYDDMAA [YWHAG_Y20_E15A] | 2.79 |
| SHLEDYPFNAE [AKR1B10_Y310] | 0.404 |
| NIKKEYAKMVQ [PMS2_Y181] | 0.623 |
| QDLFLYQTHSE [PKHD1_Y255] | 0.49 |
| CTIIHYNYMCN [TP53_Y234_T231I] | 2.11 |
| KNILCYIQGGS [HYDIN_Y4610] | 0.328 |
| ALVDTYCRHNY [HLA-DRB1_Y107_A103L] | 0.582 |
| SPPILYSFYLD [FCRL6_Y239] | 0.882 |

Each sequence was assayed against Grb2 SH2 (UniProt P62993) in the same assay as above.
Sequence of Grb2 SH2 (P62993 whole entry, looked up): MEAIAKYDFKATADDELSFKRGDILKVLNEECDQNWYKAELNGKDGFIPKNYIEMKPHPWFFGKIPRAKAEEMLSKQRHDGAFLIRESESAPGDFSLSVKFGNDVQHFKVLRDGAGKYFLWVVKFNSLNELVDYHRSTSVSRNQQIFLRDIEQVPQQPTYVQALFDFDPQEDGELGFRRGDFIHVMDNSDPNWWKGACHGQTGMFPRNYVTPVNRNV

| Sequence | SH2 binding enrichment |
| --- | --- |
| LIYTNYEAGKD [GSTP1_Y112] | 1.09 |
| IGEGTYGVVFK [CDK2_Y15_YF] | 0.799 |
| IGSQRYKLGVR [RB1_Y446] | 1.16 |
| RRIHSYRSHLW [VHL_Y112_G114S] | 0.574 |
| EEQKRYYNAMK [SCN5A_Y1494_K1493R] | 1.32 |
| HELFVYKCDEN [DOCK3_Y548_YF] | 1.14 |
| NTFEKYWLFFQ [GATM_Y103_P105L_YF] | 0.975 |
| KTGDYYDLYGG [PTPN11_Y63_N58K] | 0.858 |
| IVAREYYSEAD [CAMK2A_Y106] | 0.886 |
| FRPPYYHRDCM [HGD_Y334_N337D] | 1.08 |
| TETGRYEILTE | 0.772 |
| RVEDAYILTCN [CCT6A_Y229] | 0.663 |
| DLRTGYSVPYG [TGM1_Y370_Y365D] | 0.906 |
| LNPLIYSLRNK [OR5R1_Y290] | 0.86 |
| SSNTEYLSASD [INSR_Y999_P997T] | 0.689 |
| EYFDGYWEYSV [ITGA2B_Y265_G267E] | 0.876 |
| PDSVDYRKKGF [CTSK_Y121_YF] | 0.755 |

| Sequence | SH2 binding enrichment |
| --- | --- |
| EPAVLYNLKER [MYH7_Y103_D107E] | 0.773 |
| LASLIYNFILF [AQP6_Y231_V234I] | 0.993 |
| GQSKGYRPKLF [SIPA1L3_Y1376_YF] | 0.742 |
| CEHRGFLYLAI [TEK_Y897_Y897F] | 1.47 |
| SLTRLCVGENA [NLRP3_Y861_Y861C] | 0.867 |
| QPGTDYKIYRY [FN1_Y1970_L1974R] | 0.734 |
| VMSMNYRVGAL [BCHE_Y174_V170M] | 0.719 |
| SHMVDYQPYRK [TEX37_Y25] | 0.735 |
| AQAERYDDMAA [YWHAG_Y20_E15A] | 0.858 |
| SHLEDYPFNAE [AKR1B10_Y310] | 0.928 |
| NIKKEYAKMVQ [PMS2_Y181] | 0.824 |
| QDLFLYQTHSE [PKHD1_Y255] | 0.763 |
| CTIIHYNYMCN [TP53_Y234_T231I] | 1.76 |
| KNILCYIQGGS [HYDIN_Y4610] | 0.617 |
| ALVDTYCRHNY [HLA-DRB1_Y107_A103L] | 0.911 |
| SPPILYSFYLD [FCRL6_Y239] | 1.28 |

The sequences below were run against Jak2 (UniProt O60674) (assay: phosphorylation enrichment, bacterial display (enrichment ratio); higher = better substrate or ligand; peptides without Tyr show the background).
Sequence of Jak2 (O60674 whole entry, looked up): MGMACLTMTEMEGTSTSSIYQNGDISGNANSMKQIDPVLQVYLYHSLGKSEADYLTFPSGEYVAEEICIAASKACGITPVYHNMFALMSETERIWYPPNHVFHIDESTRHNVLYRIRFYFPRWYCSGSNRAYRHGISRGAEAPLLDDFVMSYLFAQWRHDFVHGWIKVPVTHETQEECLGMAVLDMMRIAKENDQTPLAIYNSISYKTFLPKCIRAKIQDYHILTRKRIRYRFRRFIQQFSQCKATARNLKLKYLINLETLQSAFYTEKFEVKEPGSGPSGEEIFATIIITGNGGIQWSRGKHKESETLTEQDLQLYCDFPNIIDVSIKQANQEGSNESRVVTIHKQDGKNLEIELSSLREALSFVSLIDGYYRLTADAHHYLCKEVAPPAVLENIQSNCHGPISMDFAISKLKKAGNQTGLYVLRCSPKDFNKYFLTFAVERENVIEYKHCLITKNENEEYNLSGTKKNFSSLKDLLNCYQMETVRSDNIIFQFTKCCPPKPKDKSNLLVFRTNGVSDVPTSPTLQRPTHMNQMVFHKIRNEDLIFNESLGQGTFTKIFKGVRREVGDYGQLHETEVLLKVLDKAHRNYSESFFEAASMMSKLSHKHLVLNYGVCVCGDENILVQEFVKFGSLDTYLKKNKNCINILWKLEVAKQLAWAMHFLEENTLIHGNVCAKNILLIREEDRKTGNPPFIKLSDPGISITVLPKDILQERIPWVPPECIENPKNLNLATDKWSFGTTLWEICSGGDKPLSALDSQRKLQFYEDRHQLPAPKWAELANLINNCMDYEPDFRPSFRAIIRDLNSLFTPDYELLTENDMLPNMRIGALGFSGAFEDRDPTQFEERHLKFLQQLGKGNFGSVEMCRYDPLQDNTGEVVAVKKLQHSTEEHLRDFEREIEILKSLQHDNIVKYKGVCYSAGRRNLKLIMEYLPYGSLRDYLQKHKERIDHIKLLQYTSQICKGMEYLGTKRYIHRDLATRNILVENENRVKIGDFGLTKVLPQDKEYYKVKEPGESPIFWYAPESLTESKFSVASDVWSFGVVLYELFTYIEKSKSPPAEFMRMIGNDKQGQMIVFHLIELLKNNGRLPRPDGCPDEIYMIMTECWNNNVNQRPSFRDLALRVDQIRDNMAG

| Sequence | phosphorylation enrichment |
| --- | --- |
| LIYTNYEAGKD [GSTP1_Y112] | 0.88 |
| IGEGTYGVVFK [CDK2_Y15_YF] | 0.815 |
| IGSQRYKLGVR [RB1_Y446] | 0.436 |
| RRIHSYRSHLW [VHL_Y112_G114S] | 0.487 |
| EEQKRYYNAMK [SCN5A_Y1494_K1493R] | 0.479 |
| HELFVYKCDEN [DOCK3_Y548_YF] | 1.95 |
| NTFEKYWLFFQ [GATM_Y103_P105L_YF] | 1.2 |
| KTGDYYDLYGG [PTPN11_Y63_N58K] | 2.26 |
| IVAREYYSEAD [CAMK2A_Y106] | 1.01 |
| FRPPYYHRDCM [HGD_Y334_N337D] | 0.723 |
| TETGRYEILTE | 0.658 |
| RVEDAYILTCN [CCT6A_Y229] | 0.772 |
| DLRTGYSVPYG [TGM1_Y370_Y365D] | 0.663 |
| LNPLIYSLRNK [OR5R1_Y290] | 1.13 |
| SSNTEYLSASD [INSR_Y999_P997T] | 0.82 |
| EYFDGYWEYSV [ITGA2B_Y265_G267E] | 5.73 |
| PDSVDYRKKGF [CTSK_Y121_YF] | 0.49 |

| Sequence | phosphorylation enrichment |
| --- | --- |
| EPAVLYNLKER [MYH7_Y103_D107E] | 0.74 |
| LASLIYNFILF [AQP6_Y231_V234I] | 2.98 |
| GQSKGYRPKLF [SIPA1L3_Y1376_YF] | 0.37 |
| CEHRGFLYLAI [TEK_Y897_Y897F] | 0.801 |
| SLTRLCVGENA [NLRP3_Y861_Y861C] | 0.759 |
| QPGTDYKIYRY [FN1_Y1970_L1974R] | 0.968 |
| VMSMNYRVGAL [BCHE_Y174_V170M] | 0.715 |
| SHMVDYQPYRK [TEX37_Y25] | 0.719 |
| AQAERYDDMAA [YWHAG_Y20_E15A] | 0.954 |
| SHLEDYPFNAE [AKR1B10_Y310] | 1.03 |
| NIKKEYAKMVQ [PMS2_Y181] | 0.436 |
| QDLFLYQTHSE [PKHD1_Y255] | 1.97 |
| CTIIHYNYMCN [TP53_Y234_T231I] | 0.829 |
| KNILCYIQGGS [HYDIN_Y4610] | 1.27 |
| ALVDTYCRHNY [HLA-DRB1_Y107_A103L] | 0.456 |
| SPPILYSFYLD [FCRL6_Y239] | 0.775 |
